Laboratory results published in US20260209365A1, “ANTI-COMMON GAMMA CHAIN PROTEINS AND COMPOSITIONS OF MATTER” (SINOMAB BIOSCIENCE LIMITED, priority 2023, published 2026).
Changes are numbered by the printed parent chain. Values belong to the molecule of their own block, whether it stands above or below them.

Key:
[1] = biological target: T1, human γc protein (extracellular domain) (human, UniProt P31785 23-262); assay: monoclonal phage ELISA, human γc protein; negative control
T1 construct: Purchased from Sino Biological or made in-house; Residues 1-262 may hold the signal peptide; also called human common gamma chain; purified human γc
T1 sequence: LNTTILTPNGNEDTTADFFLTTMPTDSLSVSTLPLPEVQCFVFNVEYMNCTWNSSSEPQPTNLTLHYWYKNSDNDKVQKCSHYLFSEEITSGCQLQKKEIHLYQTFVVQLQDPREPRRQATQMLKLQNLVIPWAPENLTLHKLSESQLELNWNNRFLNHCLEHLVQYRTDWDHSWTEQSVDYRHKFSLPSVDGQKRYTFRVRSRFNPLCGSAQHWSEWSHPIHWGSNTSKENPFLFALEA

[2] = biological target: T2, chimpanzee γc protein (extracellular domain), purified (chimpanzee (Pan troglodytes), UniProt P31785 23-262); assay: ELISA, strip coated with 1 µg/ml chimpanzee γc, antibody in 5-fold dilutions from 10 to 0.00064 µg/ml, OD 450 nm; sigmoid curve reaching about 1.4
T2 construct: also called chimpanzee (Pan troglodytes) γc
T2 sequence: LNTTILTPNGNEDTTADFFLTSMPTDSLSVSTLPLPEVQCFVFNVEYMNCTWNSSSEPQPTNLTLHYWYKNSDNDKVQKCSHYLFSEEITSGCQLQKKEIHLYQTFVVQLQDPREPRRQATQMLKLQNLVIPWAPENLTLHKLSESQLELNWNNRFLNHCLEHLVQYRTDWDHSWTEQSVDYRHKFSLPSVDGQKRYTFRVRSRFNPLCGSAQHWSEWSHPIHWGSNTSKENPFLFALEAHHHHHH
Description: (§1) More particularly, FIG. 3A presents the binding curve of SM-05A and FIG. 3B presents the bin ding curve of SM-05E. In each example, the ELISA strip was coated with 1 μg/ml γc protein from each species and antibody was diluted 5-fold each from 10 μg/ml to 0.00064 μg/ml.
(§2) Selected clones of full-length antibodies were evaluated by ELISA to access the binding specificity.

[3] = biological target: T3, human γc protein (extracellular domain), purified (human (Homo sapiens), UniProt P31785 23-262); assay: ELISA, strip coated with 1 µg/ml human γc, antibody in 5-fold dilutions from 10 to 0.00064 µg/ml, OD 450 nm; sigmoid curve with plateau about 1.55
T3 construct: Either purchased from Sino Biological or in-house generated; also called human common gamma chain; CD132; not shown: which was used i
T3 sequence: T1 sequence
Description: as §1, §2

[4] = biological target: T4, cynomolgus γc protein (extracellular domain), purified (cynomolgus (Macaca fascicularis), UniProt P31785 23-254 (human entry)); assay: ELISA, strip coated with 1 µg/ml cynomolgus γc, antibody in 5-fold dilutions from 10 to 0.00064 µg/ml, OD 450 nm; curve stays near baseline up to about 0.4 µg/ml and rises to about 1.35 at 10 µg/ml, no upper plateau
T4 construct: Purchased from Sino Biological or in-house; also called cynomolgus (Macaca fascicularis) γc
T4 chain: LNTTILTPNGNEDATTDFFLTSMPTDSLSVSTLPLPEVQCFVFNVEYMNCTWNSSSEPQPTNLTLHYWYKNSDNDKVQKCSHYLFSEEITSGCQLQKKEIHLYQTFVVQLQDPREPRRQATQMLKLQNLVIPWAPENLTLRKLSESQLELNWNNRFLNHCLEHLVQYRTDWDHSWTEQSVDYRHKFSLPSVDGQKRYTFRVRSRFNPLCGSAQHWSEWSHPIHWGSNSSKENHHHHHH
Description: as §1, §2

[5] = biological target: T3, human γc protein (extracellular …); assay: ELISA, strip coated with 1 µg/ml human γc, antibody in 5-fold dilutions from 10 to 0.00064 µg/ml, OD 450 nm; sigmoid curve with plateau about 1.6
Description: as §1, §2

[6] = biological target: T2, chimpanzee γc protein (extracellular …); assay: ELISA, strip coated with 1 µg/ml chimpanzee γc, antibody in 5-fold dilutions from 10 to 0.00064 µg/ml, OD 450 nm; curve rises to about 1.5 at the last point shown
Description: as §1, §2

[7] = biological target: T4, cynomolgus γc protein (extracellular …); assay: ELISA, strip coated with 1 µg/ml cynomolgus γc, antibody in 5-fold dilutions from 10 to 0.00064 µg/ml, OD 450 nm; curve stays near baseline up to about 0.08 µg/ml and rises to about 1.65 at 10 µg/ml, no upper plateau
Description: as §1, §2

[8] = biological target: T5, rat γc protein (extracellular domain) (rat); assay: BLI, antibody on anti-human IgG sensors, rat γc in solution
T5 chain: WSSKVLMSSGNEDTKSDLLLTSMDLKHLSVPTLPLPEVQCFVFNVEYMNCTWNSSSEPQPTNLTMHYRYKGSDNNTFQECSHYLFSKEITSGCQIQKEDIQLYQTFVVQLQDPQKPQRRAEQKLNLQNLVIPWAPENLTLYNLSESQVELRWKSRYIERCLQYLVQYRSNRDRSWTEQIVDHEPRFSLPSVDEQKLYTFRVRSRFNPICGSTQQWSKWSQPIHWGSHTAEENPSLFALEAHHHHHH

[9] = biological target: T6, mouse γc protein (extracellular domain) (mouse, UniProt P34902 23-263); assay: BLI, antibody on anti-human IgG sensors, mouse γc in solution
T6 construct: also called Mus musculus γc
T6 sequence: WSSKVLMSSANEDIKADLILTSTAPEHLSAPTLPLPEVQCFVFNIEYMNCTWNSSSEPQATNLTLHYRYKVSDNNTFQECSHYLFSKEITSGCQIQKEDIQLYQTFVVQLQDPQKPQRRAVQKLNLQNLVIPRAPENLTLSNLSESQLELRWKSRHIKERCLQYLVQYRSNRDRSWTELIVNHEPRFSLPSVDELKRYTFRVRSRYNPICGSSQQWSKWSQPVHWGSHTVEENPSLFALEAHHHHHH
Description: (§3) Full-length humanized antibodies were evaluated by BLI to access their binding kinetics. The binding activities of full-length anti-γc antibody were investigated using γc proteins (extracellular domain) from human and common marmoset (either purchased or in-house generated). Briefly, anti-γc antibody (20 μg/mL) was immobilized on biosensors via interactions with anti-human IgG; serially diluted γc proteins (at a concentration of 158.7 nM, 79.4 Nm, 39.7n M and 0 nM respectively) were subsequently added following standard operation protocols of the Octet ReD96 system to plot out the association and dissociation curve. Irrelevant antibody (SM03, anti-human CD22 chimeric IgG1 antibody, SinoMab BioScience Limited) was used as the control reference. The KD is within the picomolar-single digit nanomolar range.

[10] = biological target: T7, cynomolgus γc protein (extracellular domain) (cynomolgus, UniProt P31785 23-254 (human entry)); assay: BLI, antibody on anti-human IgG sensors, cynomolgus γc in solution
T7 construct: also called Macaca fascicularis γc
T7 chain: T4 chain

[11] = biological target: T8, common marmoset γc protein (extracellular domain) (common marmoset, UniProt P31785 26-262 (human entry)); assay: BLI, antibody on anti-human IgG sensors, common marmoset γc in solution
T8 construct: also called Callithrix jacchus γc
T8 chain: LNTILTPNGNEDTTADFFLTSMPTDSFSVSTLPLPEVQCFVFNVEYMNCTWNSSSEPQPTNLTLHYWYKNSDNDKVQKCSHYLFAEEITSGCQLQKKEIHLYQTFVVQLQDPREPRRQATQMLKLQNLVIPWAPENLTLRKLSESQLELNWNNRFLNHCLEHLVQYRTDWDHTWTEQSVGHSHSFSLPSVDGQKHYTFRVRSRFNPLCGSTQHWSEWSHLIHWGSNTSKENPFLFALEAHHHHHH
Description: as §3

[12] = biological target: T1, human γc protein (extracellular domain); assay: BLI (Octet RED96), antibody on anti-human IgG sensors, γc in solution; Experiment 1
Description: as §3

[13] = biological target: T1, human γc protein (extracellular domain); assay: BLI (Octet RED96), antibody on anti-human IgG sensors, γc in solution; Experiment 2
Description: as §3

B2: SM-05E full-length chimeric anti-γc antibody (antibody, V domains shown)
VH: EVHLQQSGPELVKPGASVKIFCKTSGYTFTEYTMHWVKQSHGESLEWIGGIDPNTGGVTYNQKFKGKATLTADKSSSTAYMELRSLTSEDSAVYYCARRRRYYGYALDYWGQGTSVTVSS
VL: DVLMTQTPLSLPVSLGDQASISCRSSQSIVHSNGNTYLEWYLQKPGQSPKLLIYKVSNRFSGVPDRFSGSGSGTDFTLKISSVEAEDLGVYFCSQSTHVPFMFGSGTKLEIKR
notes: Full-length chimeric antibody made in Expi-CHO
EC50 [5]: 0.02 µg/mL
EC50 [6]: 0.17 µg/mL
EC50 [7]: 6.47 µg/mL

B3: hSM-05A (humanized anti-γc antibody with back-mutation) (antibody, V domains shown)
VH: QVQLVQSGAEVLKPGASVKVSCKASGYTFTEYTMHWVKQARGQRLEWIGGIDPYNGGATYNQRFKGKATLTTDTSTSTAYMELRNLRSDDTAVYYCARRRLYYGNALDYWGQGTLVTVSS
VL: DIVMTQSPLSLPVTPGEQASISCRSSQSLVHSNGNTYLHWYLQKPGQSPQLLIYKVSSRFSGVPDRFSGSGSGTDFTLKISRVEAEDVGVYFCSQTTHVPFTFGSGTKLEIKR
notes: Full-length humanized antibody; 199-200' and the pairing of claim 11(b); also called hbSM-05A; humanized SM-05A
Kd [8]: 16.1 nM
Kd [9]: 108 nM
koff [9]: 0.000712 s⁻¹
kon [9]: 6580 M⁻¹ s⁻¹
Kd [10]: 304 nM
koff [10]: 0.00683 s⁻¹
kon [10]: 22500 M⁻¹ s⁻¹
Kd [11]: 4.05 nM
koff [11]: 0.00121 s⁻¹
kon [11]: 300000 M⁻¹ s⁻¹
Kd [12]: 2.69 nM
koff [12]: 0.000319 s⁻¹
kon [12]: 119000 M⁻¹ s⁻¹
Kd [13]: 8.23 nM
koff [13]: 0.00144 s⁻¹
kon [13]: 175000 M⁻¹ s⁻¹

B4: hSM-05E (humanized anti-γc antibody with back-mutation) (antibody, V domains shown)
VH: B3 VH with Y54N, N55T, A58V, R63K, L101R, N105Y
VL: B3 VL with L29I, H39E, S58N, T96S, T102M
notes: Full-length humanized antibody; VH 198 / VL 200 tied to SM-05E only by the order '(e.g., SM-05A, SM-05E) ; 199-200' and the pairing of claim 11(d); also called hbSM-05E; humanized SM-05E
Kd [8]: 29.3 nM
koff [8]: 0.00208 s⁻¹
kon [8]: 71000 M⁻¹ s⁻¹
Kd [9]: 66.2 nM
koff [9]: 0.0252 s⁻¹
kon [9]: 340000 M⁻¹ s⁻¹
Kd [10]: 304 nM
koff [10]: 0.00683 s⁻¹
kon [10]: 22500 M⁻¹ s⁻¹
Kd [11]: 5.27 nM
koff [11]: 0.00175 s⁻¹
kon [11]: 333000 M⁻¹ s⁻¹
Kd [12]: 4.82 nM
koff [12]: 0.000573 s⁻¹
kon [12]: 119000 M⁻¹ s⁻¹
Kd [13]: 2.89 nM
koff [13]: 0.000944 s⁻¹
kon [13]: 327000 M⁻¹ s⁻¹

Other lines, results leading:

OD (450 nm) [1]: 0.045 OD
Molecule: M13KO7 (negative)

EC50 [2]: 0.17 µg/mL
EC50 [3]: 0.02 µg/mL
EC50 [4]: 14.5 µg/mL
B1: SM-05A full-length chimeric anti-γc antibody (antibody, V domains shown)
VH: EVQLQQSGPELVKPGASVKISCKTSGYTFTEYTMHWVKQSHGKSLEWIGGIDPYNGGATYNQRFKGKATLTVDKSSSTAYMEFRSLTSEDSAVYYCARRRLYYGNALDYWGQGTSVTVSS
VL: B2 VL with I29L, E39H, K44R, N58S, S82R, S96T, M102T
notes: Full-length chimeric antibody made in Expi-CHO (mouse variable, human constant regions)
